T1: GST-Laf1 (S. cerevisiae, UniProt Q03177 1-834)
T1 construct: Laf1/Ymr102c, S. cerevisiae, WD40 repeat protein; plasmid described only as pGEX4T-1 Laf1, no limits stated; Probably the whole open reading frame (surmised); also called Ymr102c; Lam2/Ltc4-Associated Factor 1; source: E. coli BL21(DE3), purified (glutathione beads); not shown: GST, N-terminal, kept
T1 sequence (looked up): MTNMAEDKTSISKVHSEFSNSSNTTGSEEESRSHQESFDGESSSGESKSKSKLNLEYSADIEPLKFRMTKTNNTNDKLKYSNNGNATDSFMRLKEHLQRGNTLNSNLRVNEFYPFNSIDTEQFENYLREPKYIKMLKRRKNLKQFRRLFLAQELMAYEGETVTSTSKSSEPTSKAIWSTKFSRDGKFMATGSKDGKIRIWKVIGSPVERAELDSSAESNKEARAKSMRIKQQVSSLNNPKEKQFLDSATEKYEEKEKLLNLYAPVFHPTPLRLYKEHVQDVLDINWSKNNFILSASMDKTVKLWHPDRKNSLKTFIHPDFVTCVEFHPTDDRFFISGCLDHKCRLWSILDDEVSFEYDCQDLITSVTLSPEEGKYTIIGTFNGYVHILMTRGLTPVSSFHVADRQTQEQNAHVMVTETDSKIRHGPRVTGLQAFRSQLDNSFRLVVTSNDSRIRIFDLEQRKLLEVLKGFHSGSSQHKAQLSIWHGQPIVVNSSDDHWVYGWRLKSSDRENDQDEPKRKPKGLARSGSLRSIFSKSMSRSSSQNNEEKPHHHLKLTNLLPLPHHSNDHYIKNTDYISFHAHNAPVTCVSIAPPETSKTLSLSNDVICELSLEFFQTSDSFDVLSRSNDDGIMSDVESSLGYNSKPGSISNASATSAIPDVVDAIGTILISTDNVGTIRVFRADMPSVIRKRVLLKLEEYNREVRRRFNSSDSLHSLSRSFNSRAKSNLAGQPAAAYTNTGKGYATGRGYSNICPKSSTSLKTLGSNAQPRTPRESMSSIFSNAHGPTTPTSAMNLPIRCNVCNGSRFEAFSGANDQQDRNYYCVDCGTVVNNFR

T2: GST-Dgr2 (S. cerevisiae, UniProt P32330 1-852)
T2 construct: Dgr2/Ykl121w, S. cerevisiae, WD40 repeat protein, paralog of Laf1; plasmid described only as pGEX4T-1 Dgr2, no limits stated; Probably the whole open reading frame (surmised); also called Ykl121w; pFR404; source: E. coli BL21(DE3), purified (glutathione beads); not shown: GST, N-terminal, kept
T2 sequence (looked up): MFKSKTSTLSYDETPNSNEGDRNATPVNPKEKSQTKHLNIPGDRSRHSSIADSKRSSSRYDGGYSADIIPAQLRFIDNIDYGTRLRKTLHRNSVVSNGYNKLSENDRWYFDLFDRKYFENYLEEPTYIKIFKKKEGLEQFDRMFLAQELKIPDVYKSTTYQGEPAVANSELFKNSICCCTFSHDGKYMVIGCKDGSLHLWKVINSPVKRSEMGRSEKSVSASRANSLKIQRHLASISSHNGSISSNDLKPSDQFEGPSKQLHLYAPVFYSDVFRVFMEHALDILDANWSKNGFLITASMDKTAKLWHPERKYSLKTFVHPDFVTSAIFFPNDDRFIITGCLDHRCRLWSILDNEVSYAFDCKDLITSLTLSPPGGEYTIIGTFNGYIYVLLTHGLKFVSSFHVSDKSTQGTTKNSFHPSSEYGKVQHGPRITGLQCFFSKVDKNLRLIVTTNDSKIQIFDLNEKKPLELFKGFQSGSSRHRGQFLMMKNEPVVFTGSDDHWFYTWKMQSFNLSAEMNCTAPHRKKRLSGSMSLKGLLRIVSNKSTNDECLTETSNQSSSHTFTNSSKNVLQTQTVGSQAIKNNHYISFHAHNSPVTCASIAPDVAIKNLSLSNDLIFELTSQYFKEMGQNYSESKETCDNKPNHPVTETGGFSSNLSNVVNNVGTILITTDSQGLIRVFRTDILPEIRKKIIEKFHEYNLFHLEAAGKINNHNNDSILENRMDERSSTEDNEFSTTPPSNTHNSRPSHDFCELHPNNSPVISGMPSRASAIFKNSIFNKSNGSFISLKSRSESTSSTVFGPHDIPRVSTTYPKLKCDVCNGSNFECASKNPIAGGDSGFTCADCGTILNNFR


Experiments:
GST-Laf1 = target: T1, GST-Laf1; assay: pull-down; GST fusion (bait) and His6-tagged Lam fragment incubated 1 h at 4 °C, complexes on glutathione-agarose beads; binding buffer 81 mM NaCl, 4.5 mM KCl, 1.35 mM MgCl2, 0.09% Triton X-100, 0.1 mg/mL BSA, 20 mM HEPES pH 7.5; four washes; immunoblot (anti-His, anti-GST); conditions: both partners purified
GST-Dgr2 = target: T2, GST-Dgr2; assay: as above; conditions: both partners purified

Binder	binding result (GST-Laf1)	binding result (GST-Dgr2)
Lam2(482–1259; ∆644–760)-(His)6 (domain or fragment, S. cerevisiae, UniProt Q06681 482-1259, looked up, also called ∆PH; source: E. coli BL21(DE3), purified (glutathione beads, cut off with TEV protease); not shown: GST, N-terminal, cleaved; His6, C-terminal, kept) LGPKELNTSYRNSTYIDMARFENSQSNLSSHRARSKTLPANKALENAVGDEGNSKRNSRYSSYSNDMAFDDADERKFRSMSKKFLNRRSFSPSNLGNKVIPGINLRNSFNKNRNSSSDFFSTNQGQQMPRTSTAGSGNIHAIMGLDSGNDDFKLEGIEYASEKYRNGFGNNDDGTISDSSSAFFDDSDDNDDDGDLDDDDPDINSTDMTSSDDIDADVFNESNDLGKNQKSTNYLLGPNKHSPTTADFKPSNNDHLVIEANINAPLGKVVNLLYGEDVSYYERILKAQKNFEISPIPNNFLTKKIRDYAYTKPLSGSIGPSKTKCLITDTLEHYDLEDYVKVLSITKNPDVPSGNIFSVKTVFLFSWDKNNSTKLTVYNSVDWTGKSWIKSMIEKGTFDGVADTTKIMISEIKKILSDEDSNINSKHQASNNESEEEIINLPTIGPPVHDPTEPDFQKGKDDTVIDEKINIPVPLGTVFSLLYGDDTSYIKKIIENQNNFNVCDIPKFVNNAREITYTKKLNNSFGPKQTKCIVTETIEHMDLNSFFMVKQIVRSPDVPYGSSFSVHTRFFYSWGDHNTTNMKVVTNVVWTGKSMLKGTIEKGSIDGQRSSTKQLVDDLKKIISNASSTKKKSRRRGKTVNKRKSSPSTIKNEKNEENFED	binds	
Lam2(482–1259)-(His)6 (domain or fragment, S. cerevisiae, UniProt Q06681 482-1259, looked up, also called Lam2/Ltc4/Ysp2 fragment; pFR391; source: E. coli BL21(DE3), purified (glutathione beads, cut off with TEV protease); not shown: GST, N-terminal, cleaved; His6, C-terminal, kept) LGPKELNTSYRNSTYIDMARFENSQSNLSSHRARSKTLPANKALENAVGDEGNSKRNSRYSSYSNDMAFDDADERKFRSMSKKFLNRRSFSPSNLGNKVIPGINLRNSFNKNRNSSSDFFSTNQGQQMPRTSTAGSGNIHAIMGLDSGNDDFKLEGIEYASEKKNSEFHTLFKDCDINPNEKLIVDHSCALSRDILLQGRMYISDAHIGFFSNILGWVSTVFIPFKEIVQIEKKTTAGIFPNGIVIDTLHTKYIFASFMSRDATFDLITDVWNQIILGKKYRNGFGNNDDGTISDSSSAFFDDSDDNDDDGDLDDDDPDINSTDMTSSDDIDADVFNESNDLGKNQKSTNYLLGPNKHSPTTADFKPSNNDHLVIEANINAPLGKVVNLLYGEDVSYYERILKAQKNFEISPIPNNFLTKKIRDYAYTKPLSGSIGPSKTKCLITDTLEHYDLEDYVKVLSITKNPDVPSGNIFSVKTVFLFSWDKNNSTKLTVYNSVDWTGKSWIKSMIEKGTFDGVADTTKIMISEIKKILSDEDSNINSKHQASNNESEEEIINLPTIGPPVHDPTEPDFQKGKDDTVIDEKINIPVPLGTVFSLLYGDDTSYIKKIIENQNNFNVCDIPKFVNNAREITYTKKLNNSFGPKQTKCIVTETIEHMDLNSFFMVKQIVRSPDVPYGSSFSVHTRFFYSWGDHNTTNMKVVTNVVWTGKSMLKGTIEKGSIDGQRSSTKQLVDDLKKIISNASSTKKKSRRRGKTVNKRKSSPSTIKNEKNEENFED	binds	binds

Further lines, results first:

binding result (GST-Laf1)	binding result (GST-Dgr2)	Binder
binds	binds	Lam4(371–1177)-(His)6 (domain or fragment, S. cerevisiae, UniProt P38800 371-1177, looked up, also called Lam4/Ltc3 fragment; pFR407; source: E. coli BL21(DE3), purified (glutathione beads, cut off with TEV protease); not shown: GST, N-terminal, cleaved; His6, C-terminal, kept) SNLERKTVPSKWSVVSSSTTDGVKPRRRAKSMISAMADKQNTSSDVLQDCKKRLSFNSSNGLTNNDPEYEDREPREMSKKFLNRRSFSPGSISMGMKVLPSTALKYSLNKVKNSTDIASTIIPRPSMSNGRPSSGLRRSSSKSFSSTPVNIIEPSEENGRQSSIRIKGVEYASEKKDAEFHAIFKDSGVSPNERLILDHSCALSRDILLQGRMYISDQHIGFYSNILGWVSTVFIPFKTIVQIEKRATAGIFPNGIVIDTLHTKYTFASFTSRDATYDLITEVWNQIILGKRFRSNSNNTNSSSNSISDDENDDYDDDYDDYGDDDDDLYDNSNNISDSTDMTSSVSIGKPEDLPMPLQTDTPYGTGIPPLGPKIHSPTETVYKPAPNEKLVNESTIHASLGRVVNILFGKDVSYIMAILKAQKNSDISPIPVLVDSPTVSEGKKRDYSYVKTTPGAIGPGKTKCMITETIQHFNLEEYVQVLQTTKTPDVPSGNSFYVRTVYLLSWANNNETKLKLYVSVEWTGKSLIKSPIEKGTFDGVTDATKILVEELGNILTRSATKRKRSSKENTVTVSTLPKMEPSSHAPTEPDIQKDKDDSIIRENENIPAPLGTVVQLLFGSNTEYMQKVITRDKNNVNVETIPKFTPSLVEGGSRHYEYTKKLNNSIGPKQTKCLLTESIEHMDINNYVLVTQTTKTPDVPSGSNFAVESKIFLFWGQHDTTNMTVITKINWTSKSFLKGAIEKGSVEGQKVSVDYMLSELRDIISRAKSKKPVKKVMKSHDKHRPFHSKVEQKSSESRKSDDNKDI
binds		Lam2(849–1259)-(His)6 (domain or fragment, S. cerevisiae, UniProt Q06681 849-1259, looked up, tandem StARkin domains, PH domain removed; also called pFR409; source: E. coli BL21(DE3), purified (glutathione beads, cut off with TEV protease); not shown: GST, N-terminal, cleaved; His6, C-terminal, kept) SNNDHLVIEANINAPLGKVVNLLYGEDVSYYERILKAQKNFEISPIPNNFLTKKIRDYAYTKPLSGSIGPSKTKCLITDTLEHYDLEDYVKVLSITKNPDVPSGNIFSVKTVFLFSWDKNNSTKLTVYNSVDWTGKSWIKSMIEKGTFDGVADTTKIMISEIKKILSDEDSNINSKHQASNNESEEEIINLPTIGPPVHDPTEPDFQKGKDDTVIDEKINIPVPLGTVFSLLYGDDTSYIKKIIENQNNFNVCDIPKFVNNAREITYTKKLNNSFGPKQTKCIVTETIEHMDLNSFFMVKQIVRSPDVPYGSSFSVHTRFFYSWGDHNTTNMKVVTNVVWTGKSMLKGTIEKGSIDGQRSSTKQLVDDLKKIISNASSTKKKSRRRGKTVNKRKSSPSTIKNEKNEENFED
binds		Lam2(482-1259; T518A L519A T1237A V1238A)-(His)6 (domain or fragment, S. cerevisiae, UniProt Q06681 482-1259, looked up, also called pFR411; source: E. coli BL21(DE3), purified (glutathione beads, cut off with PreScission protease); not shown: GST, N-terminal, cleaved; His6, C-terminal, kept) LGPKELNTSYRNSTYIDMARFENSQSNLSSHRARSKAAPANKALENAVGDEGNSKRNSRYSSYSNDMAFDDADERKFRSMSKKFLNRRSFSPSNLGNKVIPGINLRNSFNKNRNSSSDFFSTNQGQQMPRTSTAGSGNIHAIMGLDSGNDDFKLEGIEYASEKKNSEFHTLFKDCDINPNEKLIVDHSCALSRDILLQGRMYISDAHIGFFSNILGWVSTVFIPFKEIVQIEKKTTAGIFPNGIVIDTLHTKYIFASFMSRDATFDLITDVWNQIILGKKYRNGFGNNDDGTISDSSSAFFDDSDDNDDDGDLDDDDPDINSTDMTSSDDIDADVFNESNDLGKNQKSTNYLLGPNKHSPTTADFKPSNNDHLVIEANINAPLGKVVNLLYGEDVSYYERILKAQKNFEISPIPNNFLTKKIRDYAYTKPLSGSIGPSKTKCLITDTLEHYDLEDYVKVLSITKNPDVPSGNIFSVKTVFLFSWDKNNSTKLTVYNSVDWTGKSWIKSMIEKGTFDGVADTTKIMISEIKKILSDEDSNINSKHQASNNESEEEIINLPTIGPPVHDPTEPDFQKGKDDTVIDEKINIPVPLGTVFSLLYGDDTSYIKKIIENQNNFNVCDIPKFVNNAREITYTKKLNNSFGPKQTKCIVTETIEHMDLNSFFMVKQIVRSPDVPYGSSFSVHTRFFYSWGDHNTTNMKVVTNVVWTGKSMLKGTIEKGSIDGQRSSTKQLVDDLKKIISNASSTKKKSRRRGKAANKRKSSPSTIKNEKNEENFED
